The supplement of paper PMC10065799, “High-throughput profiling of sequence recognition by tyrosine kinases and SH2 domains using bacterial peptide display” (eLife, 2023)

Assays:
Fyn = Fyn (UniProt P06241); test: phosphorylation enrichment, bacterial display (enrichment ratio); higher = better substrate or ligand; peptides without Tyr show the background
Jak2 = Jak2 (UniProt O60674); test: as above
Hck = Hck (UniProt P08631); test: as above
FGFR1 = FGFR1 (UniProt P11362); test: as above
EPHB2 = EPHB2 (UniProt P29323); test: as above
c-Abl (mouse) = test: as above
AncSZ = test: as above
EPHB1 = EPHB1 (UniProt P54762); test: as above
Fes = Fes (UniProt P07332); test: as above
MERTK = MERTK (UniProt Q12866); test: as above
c-Src = test: as above
FGFR3 = FGFR3 (UniProt P22607); test: as above
Fer (mouse) = test: as above
c-Src SH2 = test: SH2 binding enrichment of the phosphorylated peptide, bacterial display (enrichment ratio); higher = better substrate or ligand; peptides without Tyr show the background
SHP2-C SH2 = test: as above
Grb2 SH2 = Grb2 SH2 (UniProt P62993); test: as above
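For SH2 binding enrichment of the phosphorylated peptide, bacterial display in this document: peptide library displayed on the E. coli surface as eCPX fusions, selected cells deep-sequenced, score is each peptide's frequency after selection divided by its frequency in the input.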
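For phosphorylation enrichment, bacterial display in this document: 11-residue human phosphosite peptides and single-mutation variants displayed on the E. coli surface, counted by deep sequencing, each peptide's frequency after selection divided by its frequency in the unselected input library; frequency after pTyr selection over input frequency; kinase dosed for 20-30% of maximal phosphorylation in three min.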

Fyn, sequence (P06241 whole entry, looked up): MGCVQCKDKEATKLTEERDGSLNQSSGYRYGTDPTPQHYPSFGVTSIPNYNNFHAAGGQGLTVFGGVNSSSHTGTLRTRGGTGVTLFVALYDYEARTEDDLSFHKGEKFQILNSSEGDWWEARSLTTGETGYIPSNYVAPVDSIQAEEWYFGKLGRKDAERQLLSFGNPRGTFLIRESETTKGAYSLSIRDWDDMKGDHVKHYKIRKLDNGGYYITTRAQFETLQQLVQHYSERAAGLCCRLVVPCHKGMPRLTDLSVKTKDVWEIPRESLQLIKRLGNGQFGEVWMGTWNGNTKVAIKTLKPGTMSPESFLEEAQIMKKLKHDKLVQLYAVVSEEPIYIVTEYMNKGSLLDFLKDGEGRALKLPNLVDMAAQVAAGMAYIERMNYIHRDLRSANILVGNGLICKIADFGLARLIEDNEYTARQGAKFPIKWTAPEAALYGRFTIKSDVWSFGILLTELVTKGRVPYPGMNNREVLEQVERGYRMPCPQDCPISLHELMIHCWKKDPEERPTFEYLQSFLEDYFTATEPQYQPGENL
FGFR1, sequence (P11362 whole entry, looked up): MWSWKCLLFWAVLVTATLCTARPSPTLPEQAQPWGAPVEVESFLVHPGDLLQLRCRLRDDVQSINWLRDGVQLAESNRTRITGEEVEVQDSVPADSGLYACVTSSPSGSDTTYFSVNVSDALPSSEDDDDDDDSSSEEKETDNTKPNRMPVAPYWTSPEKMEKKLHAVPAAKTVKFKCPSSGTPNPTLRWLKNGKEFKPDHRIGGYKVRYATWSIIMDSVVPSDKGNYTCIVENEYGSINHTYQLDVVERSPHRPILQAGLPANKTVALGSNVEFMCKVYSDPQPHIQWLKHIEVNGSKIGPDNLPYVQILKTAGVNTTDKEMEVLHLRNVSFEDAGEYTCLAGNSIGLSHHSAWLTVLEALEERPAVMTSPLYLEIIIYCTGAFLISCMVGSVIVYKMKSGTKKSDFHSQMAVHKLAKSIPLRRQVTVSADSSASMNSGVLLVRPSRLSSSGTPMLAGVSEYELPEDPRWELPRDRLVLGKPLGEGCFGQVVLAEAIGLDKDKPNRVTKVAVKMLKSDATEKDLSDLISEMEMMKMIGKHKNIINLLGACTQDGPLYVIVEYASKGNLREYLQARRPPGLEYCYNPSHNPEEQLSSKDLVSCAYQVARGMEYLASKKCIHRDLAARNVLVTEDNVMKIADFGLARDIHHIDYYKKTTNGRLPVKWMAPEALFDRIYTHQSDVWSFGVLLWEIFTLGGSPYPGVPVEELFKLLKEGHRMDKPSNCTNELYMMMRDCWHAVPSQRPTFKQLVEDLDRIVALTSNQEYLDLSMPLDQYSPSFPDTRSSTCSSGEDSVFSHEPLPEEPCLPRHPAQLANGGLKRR
Jak2, sequence (O60674 whole entry, looked up): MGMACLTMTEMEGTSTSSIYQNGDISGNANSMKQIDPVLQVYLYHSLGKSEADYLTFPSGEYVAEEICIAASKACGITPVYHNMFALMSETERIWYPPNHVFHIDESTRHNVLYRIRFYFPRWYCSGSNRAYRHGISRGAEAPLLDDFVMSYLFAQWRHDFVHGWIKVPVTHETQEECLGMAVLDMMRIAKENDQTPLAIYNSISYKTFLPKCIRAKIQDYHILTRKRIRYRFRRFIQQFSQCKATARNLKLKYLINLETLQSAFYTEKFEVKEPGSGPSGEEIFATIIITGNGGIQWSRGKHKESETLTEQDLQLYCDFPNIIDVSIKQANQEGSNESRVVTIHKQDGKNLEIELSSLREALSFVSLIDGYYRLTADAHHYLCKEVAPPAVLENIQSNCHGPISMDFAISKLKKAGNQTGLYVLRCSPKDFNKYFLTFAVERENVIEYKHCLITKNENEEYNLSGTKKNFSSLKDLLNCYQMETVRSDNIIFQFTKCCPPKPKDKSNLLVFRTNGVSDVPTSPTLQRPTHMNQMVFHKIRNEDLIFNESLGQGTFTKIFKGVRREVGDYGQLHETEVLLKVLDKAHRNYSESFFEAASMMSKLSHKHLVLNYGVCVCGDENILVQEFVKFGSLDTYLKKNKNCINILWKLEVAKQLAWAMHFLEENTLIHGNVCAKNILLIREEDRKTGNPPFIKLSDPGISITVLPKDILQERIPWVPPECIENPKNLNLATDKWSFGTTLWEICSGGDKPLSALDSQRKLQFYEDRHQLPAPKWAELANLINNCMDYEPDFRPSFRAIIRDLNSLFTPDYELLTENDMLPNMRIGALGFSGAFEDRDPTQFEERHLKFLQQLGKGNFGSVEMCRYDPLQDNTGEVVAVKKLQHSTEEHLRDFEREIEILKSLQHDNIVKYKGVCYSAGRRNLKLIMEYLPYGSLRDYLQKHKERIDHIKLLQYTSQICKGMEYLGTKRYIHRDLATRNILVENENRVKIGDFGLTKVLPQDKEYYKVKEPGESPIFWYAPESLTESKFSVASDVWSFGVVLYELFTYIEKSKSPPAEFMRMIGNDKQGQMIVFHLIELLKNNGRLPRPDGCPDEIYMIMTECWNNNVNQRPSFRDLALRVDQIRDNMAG
Hck, sequence (P08631 whole entry, looked up): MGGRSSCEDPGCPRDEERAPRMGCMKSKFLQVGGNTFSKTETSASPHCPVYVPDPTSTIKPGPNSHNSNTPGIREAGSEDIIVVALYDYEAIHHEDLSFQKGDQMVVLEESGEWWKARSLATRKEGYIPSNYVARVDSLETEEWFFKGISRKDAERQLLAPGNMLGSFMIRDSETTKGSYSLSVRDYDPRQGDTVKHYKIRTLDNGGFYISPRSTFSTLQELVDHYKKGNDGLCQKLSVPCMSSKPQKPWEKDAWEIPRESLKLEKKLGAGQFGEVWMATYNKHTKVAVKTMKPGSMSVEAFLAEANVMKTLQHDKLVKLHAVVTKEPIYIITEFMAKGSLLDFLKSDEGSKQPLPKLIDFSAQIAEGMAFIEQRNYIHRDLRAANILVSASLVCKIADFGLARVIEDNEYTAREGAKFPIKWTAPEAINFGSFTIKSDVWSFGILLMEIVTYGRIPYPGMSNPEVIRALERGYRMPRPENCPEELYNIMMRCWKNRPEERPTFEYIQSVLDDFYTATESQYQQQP
Fes, sequence (P07332 whole entry, looked up): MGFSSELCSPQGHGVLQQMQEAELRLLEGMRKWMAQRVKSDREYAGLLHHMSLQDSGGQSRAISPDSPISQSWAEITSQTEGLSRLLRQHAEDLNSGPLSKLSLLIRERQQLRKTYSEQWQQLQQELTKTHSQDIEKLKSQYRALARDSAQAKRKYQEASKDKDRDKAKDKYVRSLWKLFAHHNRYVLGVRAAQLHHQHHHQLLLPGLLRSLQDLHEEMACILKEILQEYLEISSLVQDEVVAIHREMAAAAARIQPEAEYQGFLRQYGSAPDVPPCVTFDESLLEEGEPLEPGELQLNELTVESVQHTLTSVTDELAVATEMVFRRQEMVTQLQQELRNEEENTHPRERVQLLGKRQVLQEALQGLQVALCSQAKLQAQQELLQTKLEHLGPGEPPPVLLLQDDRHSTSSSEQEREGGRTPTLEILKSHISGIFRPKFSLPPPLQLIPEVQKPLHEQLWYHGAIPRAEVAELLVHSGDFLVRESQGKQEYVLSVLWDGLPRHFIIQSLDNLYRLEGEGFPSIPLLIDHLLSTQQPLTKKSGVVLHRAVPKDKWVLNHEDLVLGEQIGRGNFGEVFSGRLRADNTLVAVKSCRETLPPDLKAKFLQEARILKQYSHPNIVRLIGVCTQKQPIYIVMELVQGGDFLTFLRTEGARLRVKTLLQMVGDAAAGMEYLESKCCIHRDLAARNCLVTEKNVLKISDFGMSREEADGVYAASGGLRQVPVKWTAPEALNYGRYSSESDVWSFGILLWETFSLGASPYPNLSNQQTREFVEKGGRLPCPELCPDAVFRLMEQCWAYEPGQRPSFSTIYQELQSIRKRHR
EPHB2, sequence (P29323 whole entry, looked up): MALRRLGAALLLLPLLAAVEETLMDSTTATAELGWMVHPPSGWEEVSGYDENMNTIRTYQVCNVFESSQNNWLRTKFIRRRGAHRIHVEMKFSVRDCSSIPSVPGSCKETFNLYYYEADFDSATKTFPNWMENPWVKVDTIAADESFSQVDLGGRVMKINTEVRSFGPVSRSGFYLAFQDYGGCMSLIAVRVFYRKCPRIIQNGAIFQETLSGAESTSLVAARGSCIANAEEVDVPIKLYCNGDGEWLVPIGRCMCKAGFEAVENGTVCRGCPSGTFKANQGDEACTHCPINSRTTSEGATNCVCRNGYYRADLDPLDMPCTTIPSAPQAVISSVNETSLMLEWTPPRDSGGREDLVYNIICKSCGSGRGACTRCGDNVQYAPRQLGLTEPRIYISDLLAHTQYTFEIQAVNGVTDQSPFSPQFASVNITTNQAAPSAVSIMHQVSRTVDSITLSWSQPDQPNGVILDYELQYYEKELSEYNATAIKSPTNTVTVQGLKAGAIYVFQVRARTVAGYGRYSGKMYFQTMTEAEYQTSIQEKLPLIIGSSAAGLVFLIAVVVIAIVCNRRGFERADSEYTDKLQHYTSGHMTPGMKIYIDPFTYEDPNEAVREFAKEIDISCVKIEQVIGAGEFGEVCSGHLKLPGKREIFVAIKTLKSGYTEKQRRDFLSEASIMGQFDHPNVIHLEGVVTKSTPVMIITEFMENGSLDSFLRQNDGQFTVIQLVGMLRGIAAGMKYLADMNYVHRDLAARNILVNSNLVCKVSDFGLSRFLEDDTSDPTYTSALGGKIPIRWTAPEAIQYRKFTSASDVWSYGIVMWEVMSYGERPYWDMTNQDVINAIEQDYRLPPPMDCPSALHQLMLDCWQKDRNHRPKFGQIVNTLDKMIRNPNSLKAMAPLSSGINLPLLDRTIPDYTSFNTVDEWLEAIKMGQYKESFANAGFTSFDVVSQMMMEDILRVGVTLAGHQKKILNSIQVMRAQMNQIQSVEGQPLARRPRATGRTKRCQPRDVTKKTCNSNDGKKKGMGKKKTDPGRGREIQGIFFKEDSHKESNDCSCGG

SH2 binding enrichment (c-Src SH2)	SH2 binding enrichment (SHP2-C SH2)	SH2 binding enrichment (Grb2 SH2)	Sequence	phosphorylation enrichment (Fyn)	phosphorylation enrichment (Jak2)	phosphorylation enrichment (Hck)	phosphorylation enrichment (FGFR1)	phosphorylation enrichment (EPHB2)	phosphorylation enrichment (c-Abl (mouse))	phosphorylation enrichment (AncSZ)	phosphorylation enrichment (EPHB1)	phosphorylation enrichment (Fes)	phosphorylation enrichment (MERTK)	phosphorylation enrichment (c-Src)	phosphorylation enrichment (FGFR3)	phosphorylation enrichment (Fer (mouse))
3.36	1.18	1.1	FLAVGYHMPHI [IDS_Y225_K227M]	0.395	0.862	0.51	0.485	0.403	1.33	0.761	0.346	0.833	0.313	0.334	0.562	0.402
0.471	0.719	0.86	SVMAEYGLFGA [VSX2_Y219_YF]	7.22	0.679	2.94	0.488	0.596	0.594	0.737	0.477	0.774	0.475	6.17	0.553	0.424
3.24	1.41	0.843	DLAAQYTTVGH [SGSH_Y240_R245H]	0.585	0.586	0.96	0.462	0.453	0.593	0.854	0.463	0.947	0.405	0.699	0.651	0.519
0.588	0.644	0.718	SEASYYKSLNL [NGEF_Y289]	0.539	1.1	0.643	1.29	0.56	0.615	0.827	0.499	0.793	0.659	0.515	0.979	0.497
1.42	1.25	1.54	LMLVLYGRIFR [HTR1A_Y215]	0.715	1.48	0.495	0.372	0.958	0.791	1.84	0.646	1.24	0.475	0.644	0.809	0.768
0.375	0.501	0.646	HRGSLYLAIEY [TEK_Y899_Y897S]	0.58	2.2	0.798	0.581	0.776	2.14	1.87	0.819	2.15	0.834	0.734	1.3	0.853
3.75	0.805	0.766	VCHELYNTIRD [PBRM1_Y54]	0.718	0.761	3.01	0.489	0.608	0.978	0.898	0.546	0.975	0.448	1.38	0.683	0.683
0.533	0.738	0.827	EPTPSYEVGQR [TSC2_Y1788_G1787S]	0.427	0.686	0.486	0.462	0.426	0.627	0.726	0.443	0.895	0.383	0.428	0.581	0.408
0.869	1.03	0.997	YQGGTYSKACT [FGG_Y380_S384C]	0.383	0.59	0.541	0.349	0.4	0.719	0.52	0.428	0.74	0.459	0.436	0.529	0.38
0.538	0.727	0.818	FPDFVYKCIKA [DPYSL2_Y479_R481C]	0.51	1.44	0.563	0.616	0.613	0.95	1.35	0.691	1.39	0.446	0.595	0.788	0.533
0.503	0.731	0.775	EALDFYGELRT [PTEN_Y155_V158L]	0.933	1.33	1.25	0.571	0.764	0.843	1.27	0.771	1.48	0.453	0.805	0.964	0.779
0.39	0.632	0.933	GAVGNYSRGLA [MGMT_Y158_G160R]	0.377	0.38	0.395	0.406	0.397	0.401	0.456	0.5	0.453	0.353	0.383	0.465	0.358
0.803	0.886	0.734	KNKNRYKNVLP [PTPN11_Y279_I282V]	0.372	0.767	0.412	0.419	0.398	0.881	0.551	0.426	0.593	0.473	0.449	0.716	0.414

Continued, sequence first:

Sequence	SH2 binding enrichment (c-Src SH2)	SH2 binding enrichment (SHP2-C SH2)	SH2 binding enrichment (Grb2 SH2)	phosphorylation enrichment (Fyn)	phosphorylation enrichment (Jak2)	phosphorylation enrichment (Hck)	phosphorylation enrichment (FGFR1)	phosphorylation enrichment (EPHB2)	phosphorylation enrichment (c-Abl (mouse))	phosphorylation enrichment (AncSZ)	phosphorylation enrichment (EPHB1)	phosphorylation enrichment (Fes)	phosphorylation enrichment (MERTK)	phosphorylation enrichment (c-Src)	phosphorylation enrichment (FGFR3)	phosphorylation enrichment (Fer (mouse))
CYVYYYSYLLK [PTEN_Y178_R173C]	0.68	0.543	0.864	0.734	1.53	0.949	1.8	0.792	1.66	1.5	1.15	1.81	1.17	1.47	1.79	0.669
CRWKRYQCSHD [GDPD5_Y30_R32C]	0.494	0.583	0.656	0.52	0.612	0.529	0.488	0.493	0.41	0.559	0.458	0.666	0.384	0.448	0.562	0.425
GRLFAYPDTHR [CAT_Y358]	0.508	0.909	0.84	0.421	0.605	0.397	0.44	0.434	0.597	0.641	0.49	0.756	0.344	0.356	0.538	0.476
QGIIIYKAAYF [SLC25A4_Y187_R188K]	0.391	0.942	0.708	0.53	2.63	0.647	0.948	1.04	1.85	1.66	0.94	2.36	1.04	1.06	1.2	1.01
TLNFCYQQVKS [PTK2_Y148_F147C]	0.786	0.896	0.898	0.44	1.07	0.52	0.617	0.709	0.936	1.25	0.718	1.28	0.399	0.524	0.884	0.501
IENKLYGMSDS [RET_Y1062_P1067S]	0.451	0.663	0.706	0.438	1.08	0.543	0.484	0.524	0.678	0.805	0.464	0.948	0.547	0.614	0.511	0.646
LWQTIYNLEAE [TNNT2_Y251_S249T]	0.823	0.773	1.03	10.9	1.73	5.88	1.15	0.894	1.21	1.56	1.3	2.22	0.735	8.82	1.13	0.855
LGPSDYFGETA [PRKAR1A_Y323_I327T]	0.59	0.499	0.817	0.518	0.749	0.509	0.585	0.425	0.448	0.964	0.597	0.808	0.398	0.55	0.636	0.422
EIRTQYEAMAS [GFAP_Y242]	2.62	1.14	0.702	0.55	0.682	0.534	0.638	0.577	0.676	0.691	0.45	0.778	0.415	0.472	0.523	0.483
EVVGRYSVHNA [MLH1_Y183]	0.42	0.597	0.668	0.487	0.698	0.488	0.457	0.451	0.589	0.633	0.437	0.717	0.421	0.497	0.513	0.405
EAEPFYCSLRD [NPHS1_Y1139_R1140C_YF]	0.668	0.616	0.941	2.66	1.17	2.54	0.668	1.27	0.878	1.54	1.19	1.36	1.67	2.86	0.896	2.19
TEIGQYGNGLK [MORC2_Y100_Q96E]	0.51	0.432	0.662	0.393	0.588	0.448	0.404	0.434	0.556	0.522	0.543	0.579	0.354	0.331	0.499	0.394
EEEFEYMNRRR [ERBB3_Y1199_D1194E_YF]	0.649	0.671	1.37	0.515	1.19	0.569	0.554	0.532	0.808	1.59	0.693	1.24	0.724	0.608	0.767	0.408
KLQKFYRKNPD [EHHADH_Y683_Q685K_YF]	0.638	0.702	0.86	0.389	0.469	0.402	0.401	0.32	0.549	0.447	0.348	0.541	0.449	0.48	0.329	0.302
IYHLSYHHNCE [PDE6B_Y227_L228H]	0.833	1.19	1.09	2.15	1.03	1.51	1.32	0.602	2.09	1.29	0.703	1.34	3.55	2.29	1.17	0.671
QPGTDYKIYLY [FN1_Y1970]	0.466	0.753	0.741	0.715	1.69	0.86	0.705	0.759	1.04	1.74	0.939	1.55	0.501	0.804	0.846	0.792
TDGIAYEFRVT	0.449	0.575	0.577	0.487	1.37	0.49	0.528	0.582	0.933	1.36	0.608	1.51	0.403	0.491	0.916	0.639
FGFPGYQSKHF [TIMP3_Y177_YF]	0.588	0.75	1.07	0.521	0.5	0.496	0.47	0.398	0.574	0.534	0.422	0.651	0.405	0.401	0.499	0.406
GESLTYVSTTF [C1orf162_Y120_A121V]	0.519	0.712	0.843	0.569	0.691	0.621	0.508	0.563	0.494	0.954	0.532	1.07	0.538	0.664	0.62	0.512
PICEGYALPHA [ACTC1_Y171_Y168C]	4.74	0.918	0.951	0.707	0.453	0.535	0.682	0.587	0.897	0.946	0.488	0.804	0.445	0.406	0.598	0.577
